According to patent publication US20060115810A1:

Target: extracellular region of the human tumor antigen c-erbB-2 (human) (UniProt P04626)
Assay: method not given

With scFv C6.5 the Kd was 0.16 nM.
